Measured values: paper PMC3466315, “Influence of PAS Domain Flanking Regions on Oligomerisation and Redox Signalling By NifL” (PLoS ONE, 2012)

Columns and labels:
[1] = target: the molecule itself; experiment: SEC; Superose 12 10/300 GL, 0.5 ml/min, 50 mM Tris-HCl, 10% v/v glycerol, 200 mM NaCl, pH 8.0; protein at 106 µM (in monomeric terms); 1-140 constructs; self-association
[2] = target: the molecule itself; experiment: SEC; Superose 12 10/300 GL, 0.5 ml/min, 50 mM Tris-HCl, 10% v/v glycerol, 200 mM NaCl, pH 8.0; 1-162 constructs at the highest injected concentration, 424 µM; self-association
[3] = target: the molecule itself; experiment: SEC; Superose 12 10/300 GL, 0.5 ml/min, 50 mM Tris-HCl, 10% v/v glycerol, 200 mM NaCl, pH 8.0; 1-162 constructs at five different protein concentrations; self-association, dimer-tetramer equilibrium
[4] = target: the molecule itself; experiment: SEC; Superose 12 10/300 GL, 0.5 ml/min, 50 mM Tris-HCl, 10% v/v glycerol, 200 mM NaCl, pH 8.0; 1-162 constructs of Table S1, protein concentration not given; self-association

B1: NifL PAS1 domain construct, residues 21-140 (domain or fragment, Azotobacter vinelandii, UniProt P30663 21-140, looked up)
chain: ELLPEIFRQTVEHAPIAISITDLKANILYANRAFRTITGYGSEEVLGKNESILSNGTTPRLVYQALWGRLAQKKPWSGVLVNRRKDKTLYLAELTVAPVLNEAGETIYYLGMHRDTSELH
notes: NifL, Azotobacter vinelandii, residues 21-140; also called construct lacking the entire N-terminal extension; source: E. coli BL21(DE3)pLysS, purified; not shown: hexa-histidine-containing tag (26 additional residues, from the vector pETNdeM-11), N-terminal, kept
[1]
  stoichiometry N: 2

B2: NifL PAS1 construct with the N-terminal region and the C-terminal linker helix, residues 1-162 (domain or fragment, Azotobacter vinelandii, UniProt P30663 1-162, looked up)
chain: MTPANPTLSNEPQAPHAESDELLPEIFRQTVEHAPIAISITDLKANILYANRAFRTITGYGSEEVLGKNESILSNGTTPRLVYQALWGRLAQKKPWSGVLVNRRKDKTLYLAELTVAPVLNEAGETIYYLGMHRDTSELHELEQRVNNQRLMIEAVVNAAPA
notes: NifL, Azotobacter vinelandii, residues 1-162 (PAS1 with both flanking regions); PAS1 carries an FAD cofactor; also called NifL(1-162); 1-162 construct; source: E. coli BL21(DE3)pLysS, purified
[2]
  stoichiometry N: 2.8 monomers
[3]
  stoichiometry N: ~2
[4]
  stoichiometry N: 2.5 monomers

B3: NifL(1-162) ΔR150-L151 (domain or fragment, Azotobacter vinelandii, UniProt P30663 1-162, looked up)
chain: MTPANPTLSNEPQAPHAESDELLPEIFRQTVEHAPIAISITDLKANILYANRAFRTITGYGSEEVLGKNESILSNGTTPRLVYQALWGRLAQKKPWSGVLVNRRKDKTLYLAELTVAPVLNEAGETIYYLGMHRDTSELHELEQRVNNQMIEAVVNAAPA
notes: NifL, Azotobacter vinelandii, residues 1-162 with R150-L151 of the linker helix deleted; source: E. coli BL21(DE3)pLysS, purified
[3]
  binding result: binds

B4: NifL(1-162) ΔN147-L151 (domain or fragment, Azotobacter vinelandii, UniProt P30663 1-162, looked up)
chain: MTPANPTLSNEPQAPHAESDELLPEIFRQTVEHAPIAISITDLKANILYANRAFRTITGYGSEEVLGKNESILSNGTTPRLVYQALWGRLAQKKPWSGVLVNRRKDKTLYLAELTVAPVLNEAGETIYYLGMHRDTSELHELEQRVMIEAVVNAAPA
notes: NifL, Azotobacter vinelandii, residues 1-162 with N147-L151 of the linker helix deleted; also called construct lacking residues N147-L151; source: E. coli BL21(DE3)pLysS, purified
[2]
  stoichiometry N: 3.6 monomers

B5: NifL 1-162 PAS1 construct after removal of the first 20 residues (domain or fragment, Azotobacter vinelandii, UniProt P30663 21-162, looked up)
chain: ELLPEIFRQTVEHAPIAISITDLKANILYANRAFRTITGYGSEEVLGKNESILSNGTTPRLVYQALWGRLAQKKPWSGVLVNRRKDKTLYLAELTVAPVLNEAGETIYYLGMHRDTSELHELEQRVNNQRLMIEAVVNAAPA
notes: NifL, Azotobacter vinelandii; the 1-162 construct without its first 20 residues; The limits are worked out from 'removal of the first 20 residues' of the 1-162 construct; source: E. coli BL21(DE3)pLysS, purified
[4]
  stoichiometry N: 2

B6: NifL PAS1 domain construct, residues 1-140 (domain or fragment, Azotobacter vinelandii, UniProt P30663 1-140, looked up)
chain: MTPANPTLSNEPQAPHAESDELLPEIFRQTVEHAPIAISITDLKANILYANRAFRTITGYGSEEVLGKNESILSNGTTPRLVYQALWGRLAQKKPWSGVLVNRRKDKTLYLAELTVAPVLNEAGETIYYLGMHRDTSELH
notes: NifL, Azotobacter vinelandii, residues 1-140 (PAS1 domain with the N-terminal flanking region, without the C-terminal linker helix); PAS1 carries an FAD cofactor; also called NifL(1-140); 1-140 PAS1 domain construct; source: E. coli BL21(DE3)pLysS, purified; not shown: hexa-histidine-containing tag (26 additional residues, from the vector pETNdeM-11), N-terminal, kept
[1]
  stoichiometry N: ~4

B7: NifL(1-162) ΔL151 (domain or fragment, Azotobacter vinelandii, UniProt P30663 1-162, looked up)
chain: MTPANPTLSNEPQAPHAESDELLPEIFRQTVEHAPIAISITDLKANILYANRAFRTITGYGSEEVLGKNESILSNGTTPRLVYQALWGRLAQKKPWSGVLVNRRKDKTLYLAELTVAPVLNEAGETIYYLGMHRDTSELHELEQRVNNQRMIEAVVNAAPA
notes: NifL, Azotobacter vinelandii, residues 1-162 with L151 of the linker helix deleted; source: E. coli BL21(DE3)pLysS, purified
[3]
  binding result: binds
